# Test results from patent US20150246959A1 (published 2015).
# T1: MAGE-A6 peptide on HLA-DPB1*04:01 (human)
# T1 peptide: QYFVQENYLEY
# T2: MAGE-A2/A12 peptide on HLA-DPB1*04:01 (human)
# T2 peptide: QDLVQENYLEY
# T3: MAGE-A4/A9 peptide on HLA-DPB1*04:01 (human)
# T3 peptide: QDWVQENYLEY
# T4: MAGE-A8 peptide on HLA-DPB1*04:01 (human)
# T4 peptide: QEWVQENYLEY
# T5: MAGE-B2 peptide on HLA-DPB1*04:01 (human)
# T5 peptide: KDLVQEKYLEY
# T6: MAGE-B10 peptide on HLA-DPB1*04:01 (human)
# T6 peptide: KDLVKENYLEY
# T7: MAGE-B16 peptide on HLA-DPB1*04:01 (human)
# T7 peptide: KDFVKEKYLEY
# T8: MAGE-C1 peptide on HLA-DPB1*04:01 (human)
# T8 peptide: KVWVQEHYLEY
# T9: MAGE-A3 peptide on HLA-DPB1*04:01 (human)
# T9 peptide: QHFVQENYLEY
# T10: MAGE-L2 peptide on HLA-DPB1*04:01 (human)
# T10 peptide: KKLITEVFVRQKYLEY
# T11: MAGE-G1 peptide on HLA-DPB1*04:01 (human)
# T11 peptide: KKLITEDFVRQRYLEY
# T12: Necdin peptide on HLA-DPB1*04:01 (human)
# T12 peptide: EEFVQMNYLKY
# T13: MAGE-A12 peptide on HLA-DPB1*04:01 (human)
# T13 peptide: KKLLTQDLVQENYLEY
# T14: MAGE-A1 peptide on HLA-DPB1*04:01 (human)
# T14 peptide: KKLLTQDLVQEKYLEY
# T15: MAGE-A3 peptide on HLA-DPB1*04:02 (human)
# T15 peptide: QHFVQENYLEY
# T16: MAGE-A3 peptide on HLA-DPB1*04:01 (human)
# T16 peptide: KKLLTQHFVQEN
# T17: MAGE-A3 peptide on HLA-DPB1*04:01 (human)
# T17 peptide: KKLLTQHFVQE
# T18: MAGE-A3 peptide on HLA-DPB1*04:01 (human)
# T18 peptide: LLTQHFVQENYLEY
# T19: MAGE-A3 peptide on HLA-DPB1*04:01 (human)
# T19 peptide: LTQHFVQENYLEY
# T20: MAGE-A3 peptide on HLA-DPB1*04:01 (human)
# T20 peptide: TQHFVQENYLEY
# T21: MAGE-A3 peptide on HLA-DPB1*04:01 (human)
# T21 peptide: KKLLTQHFVQENYLEY
# B1: 6F9 TCR (TCR, V domains shown)
# Valpha: AQTVTQSQPEMSVQEAETVTLSCTYDTSESDYYLFWYKQPPSRQMILVIRQEAYKQQNATENRFSVNFQKAAKSFSLKISDSQLGDAAMYFCALRSSGTYKYIFGTGTRLKVLA
# Vbeta: GAGVSQSPSNKVTEKGKDVELRCDPISGHTALYWYRQSLGQGLEFLIYFQGNSAPDKSGLPSDRFSAERTGGSVSTLTIQRTQQEDSAVYLCASIRTGPFFSGNTIYFGEGSWLTVV
# B2: R12C9 TCR (TCR, V domains shown)
# Valpha: AQTVTQSQPEMSVQEAETVTLSCTYDTSESDYYLFWYKQPPSRQMILVIRQEAYKQQNATENRFSVNFQKAAKSFSLKISDSQLGDAAMYFCAYTVPSNAGGTSYGKLTFGQGTILTVHP
# Vbeta: EPEVTQTPSHQVTQMGQEVILRCVPISNHLYFYWYRQILGQKVEFLVSFYNNEISEKSEIFDDQFSVERPDGSNFTLKIRSTKLEDSAMYFCASSERGQGYGYTFGSGTRLTVV
# Legend:
# [1] = target: T1, MAGE-A6 peptide on HLA-DPB1*04:01; assay: cytokine release
# [2] = target: T2, MAGE-A2/A12 peptide on HLA-DPB1*04:01; assay: cytokine release
# [3] = target: T3, MAGE-A4/A9 peptide on HLA-DPB1*04:01; assay: cytokine release
# [4] = target: T4, MAGE-A8 peptide on HLA-DPB1*04:01; assay: cytokine release
# [5] = target: T5, MAGE-B2 peptide on HLA-DPB1*04:01; assay: cytokine release
# [6] = target: T6, MAGE-B10 peptide on HLA-DPB1*04:01; assay: cytokine release
# [7] = target: T7, MAGE-B16 peptide on HLA-DPB1*04:01; assay: cytokine release
# [8] = target: T8, MAGE-C1 peptide on HLA-DPB1*04:01; assay: cytokine release
# [9] = target: T9, MAGE-A3 peptide on HLA-DPB1*04:01; assay: cytokine release
# [10] = target: T10, MAGE-L2 peptide on HLA-DPB1*04:01; assay: cytokine release
# [11] = target: T11, MAGE-G1 peptide on HLA-DPB1*04:01; assay: cytokine release
# [12] = target: T12, Necdin peptide on HLA-DPB1*04:01; assay: cytokine release
# [13] = target: T13, MAGE-A12 peptide on HLA-DPB1*04:01; assay: cytokine release
# [14] = target: T14, MAGE-A1 peptide on HLA-DPB1*04:01; assay: cytokine release
# [15] = target: T15, MAGE-A3 peptide on HLA-DPB1*04:02; assay: cytokine release
# [16] = target: T16, MAGE-A3 peptide on HLA-DPB1*04:01; assay: cytokine release
# [17] = target: T17, MAGE-A3 peptide on HLA-DPB1*04:01; assay: cytokine release
# [18] = target: T18, MAGE-A3 peptide on HLA-DPB1*04:01; assay: cytokine release
# [19] = target: T19, MAGE-A3 peptide on HLA-DPB1*04:01; assay: cytokine release
# [20] = target: T20, MAGE-A3 peptide on HLA-DPB1*04:01; assay: cytokine release
# [21] = target: T21, MAGE-A3 peptide on HLA-DPB1*04:01; assay: multimer staining
# [22] = target: T21, MAGE-A3 peptide on HLA-DPB1*04:01; assay: cytokine release
binder,measurement,setting,value
B1,binding result,[1],recognises
same,binding result,[2],no recognition
same,binding result,[3],no recognition
same,binding result,[4],no recognition
same,binding result,[5],no recognition
same,binding result,[6],no recognition
same,binding result,[7],no recognition
same,binding result,[8],no recognition
same,binding result,[9],recognises
same,binding result,[10],no recognition
same,binding result,[11],no recognition
same,binding result,[12],no recognition
same,binding result,[13],no recognition
same,binding result,[14],no recognition
same,binding result,[15],recognises
same,binding result,[16],no recognition
same,binding result,[17],no recognition
same,binding result,[18],recognises
same,binding result,[19],recognises
same,binding result,[20],recognises
same,binding result,[21],recognises
B2,binding result,[22],recognises
same,binding result,[13],no recognition
same,binding result,[14],no recognition
